“And” between values parts separate entries of the source, which are not always exact repeats. Identical values can stand only once.
Tests used:
human C1q [1] = molecular target: T1, human C1q (human, UniProt P02745 23-245; P02746 28-253; P02747 29-245); assay: cell-based or functional assay
C1q = C1q (Native C1q is a hexamer of A-B-C heterotrimers (18 chains); one chain of each kind is given. The collagen-like regions carry hydroxyproline and hydroxylysine.); assay: cell-based or functional assay
human C1q [2] = molecular target: T1, human C1q; assay: one-sided ELISA on human C1q, detection with enzyme-tagged anti-human-Fc or anti-human kappa antibody
Text: Binding of Mab2-Fab, FabA and Mab2 to human C1q in a one-sided ELISA. Bound antibody or Fab molecules were detected using an enzyme-tagged anti-human-Fc or anti-human kappa antibody followed by enzyme substrate.

T1 sequence (P02745 23-245 limits assumed, chain 1 of 3): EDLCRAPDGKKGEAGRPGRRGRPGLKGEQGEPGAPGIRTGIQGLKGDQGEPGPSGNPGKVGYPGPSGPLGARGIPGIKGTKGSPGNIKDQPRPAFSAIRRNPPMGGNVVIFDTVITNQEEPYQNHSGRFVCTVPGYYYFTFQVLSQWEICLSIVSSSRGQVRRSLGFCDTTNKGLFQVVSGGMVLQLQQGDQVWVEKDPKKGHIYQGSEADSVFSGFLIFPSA
T1 sequence (P02746 28-253 limits assumed, chain 2 of 3): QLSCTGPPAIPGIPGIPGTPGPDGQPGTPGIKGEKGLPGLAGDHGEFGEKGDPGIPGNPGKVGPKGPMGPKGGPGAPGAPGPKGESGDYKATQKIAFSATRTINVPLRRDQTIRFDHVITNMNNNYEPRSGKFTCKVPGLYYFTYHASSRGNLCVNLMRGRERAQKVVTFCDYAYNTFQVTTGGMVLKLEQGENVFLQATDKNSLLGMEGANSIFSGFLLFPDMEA
T1 sequence (P02747 29-245 limits assumed, chain 3 of 3): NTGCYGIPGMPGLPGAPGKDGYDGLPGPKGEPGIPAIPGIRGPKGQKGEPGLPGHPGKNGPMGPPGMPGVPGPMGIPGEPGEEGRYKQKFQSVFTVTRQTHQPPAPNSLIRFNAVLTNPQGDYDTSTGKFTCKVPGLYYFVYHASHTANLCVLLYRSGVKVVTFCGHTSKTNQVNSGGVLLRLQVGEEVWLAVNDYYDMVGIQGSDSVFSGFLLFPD
C1q (Native C1q is a hexamer of A-B-C heterotrimers (18 chains); one chain of each kind is given. The collagen-like regions carry hydroxyproline and hydroxylysine.), sequence (A chain, as listed by the source limits assumed, form in doubt, chain 1 of 3): as the sequence (P02745 23-245 limits assumed, chain 1 of 3) above
C1q (Native C1q is a hexamer of A-B-C heterotrimers (18 chains); one chain of each kind is given. The collagen-like regions carry hydroxyproline and hydroxylysine.), sequence (B chain, as listed by the source limits assumed, form in doubt, chain 2 of 3): as the sequence (P02746 28-253 limits assumed, chain 2 of 3) above
C1q (Native C1q is a hexamer of A-B-C heterotrimers (18 chains); one chain of each kind is given. The collagen-like regions carry hydroxyproline and hydroxylysine.), sequence (C chain, as listed by the source limits assumed, form in doubt, chain 3 of 3): as the sequence (P02747 29-245 limits assumed, chain 3 of 3) above

IC50 of inhibition of the classical pathway (IgM-coated wells, C5b-9 detection, Weislab ELISA kit) (C1q): ≤ 300 ng/mL | EC50 (human C1q [2]): 2.5 ng/mL
B1: FabA (Fab)
heavy: QVQLVQSGAELKKPGASVKVSCKSSGYHFTSYWMHWVKQAPGQGLEWIGVIHPNSGSINYNEKFESRVTITVDKSTSTAYMELSSLRSEDTAVYYCAGERDSTEVLPMDYWGQGTTVTVSSASTKGPSVFPLAPSSKSTSGGTAALGCLVKDYFPEPVTVSWNSGALTSGVHTFPAVLQSSGLYSLSSVVTVPSSSLGTQTYICNVNHKPSNTKVDKKVEPKSCDKTHT
light: DVQITQSPSSLSASLGERATINCRASKSINKYLAWYQQKPGKAPKLLIYSGSTLQSGIPARFSGSGSGTDFTLTISSLEPEDFAMYYCQQHNEYPLTFGQGTKLEIKRTVAAPSVFIFPPSDEQLKSGTASVVCLLNNFYPREAKVQWKVDNALQSGNSQESVTEQDSKDSTYSLSSTLTLSKADYEKHKVYACEVTHQGLSSPVTKSFNRGEC
notes: Recombinant humanized IgG1 Fab; also called anti-C1q Fab; anti-C1q antibody Fab fragment
half maximal inhibitory concentration (IC50) of inhibition of IgM-coated RBC hemolysis in human serum (human C1q [1]): 0.62 µg/mL and ~12 nM

From patent US20250313614A1 (ANNEXON, published 2025)
